According to US20180208661A1 (CSL, published 2018):
Where a chain is given by its changes, count along the chain named.

Columns and labels:
Assay in all cases: affinity for IL-3Rα extracellular domain protein; method not stated
[1] = biological target: T1, human IL-3Rα extracellular domain S59A (human, UniProt P26951 19-305)
T1 sequence: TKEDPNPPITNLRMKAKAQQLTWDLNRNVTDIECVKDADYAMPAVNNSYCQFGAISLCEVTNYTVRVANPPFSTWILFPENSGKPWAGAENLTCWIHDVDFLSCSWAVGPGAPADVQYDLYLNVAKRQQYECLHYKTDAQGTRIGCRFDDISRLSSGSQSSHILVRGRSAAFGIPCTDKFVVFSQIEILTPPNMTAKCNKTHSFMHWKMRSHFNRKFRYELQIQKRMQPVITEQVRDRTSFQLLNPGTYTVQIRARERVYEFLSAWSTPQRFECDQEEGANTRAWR

[2] = biological target: T2, human IL-3Rα extracellular domain E51Q (human, UniProt P26951 19-305)
T2 sequence: T1 sequence with E33Q, A41S

[3] = biological target: T3, human IL-3Rα extracellular domain E51A (human, UniProt P26951 19-305)
T3 sequence: T1 sequence with E33A, A41S

[4] = biological target: T4, human IL-3Rα extracellular domain V277A (human, UniProt P26951 19-305)
T4 sequence: T1 sequence with A41S, V259A

[5] = biological target: T5, human IL-3Rα extracellular domain V277I (human, UniProt P26951 19-305)
T5 sequence: T1 sequence with A41S, V259I

[6] = biological target: T6, human IL-3Rα extracellular domain N232A (human, UniProt P26951 19-305)
T6 sequence: T1 sequence with A41S, N214A

[7] = biological target: T7, human IL-3Rα extracellular domain Y278F (human, UniProt P26951 19-305)
T7 sequence: T1 sequence with A41S, Y260F

[8] = biological target: T8, human IL-3Rα extracellular domain P61A (human, UniProt P26951 19-305)
T8 sequence: T1 sequence with A41S, P43A

[9] = biological target: T9, human IL-3Rα extracellular domain V53A (human, UniProt P26951 19-305)
T9 sequence: T1 sequence with V35A, A41S

[10] = biological target: T10, human IL-3Rα extracellular domain N232T (human, UniProt P26951 19-305)
T10 sequence: T1 sequence with A41S, N214T

[11] = biological target: T11, wild type human IL-3Rα extracellular domain (human, UniProt P26951 19-305)
T11 construct: also called huIL-3Rα WT; WT
T11 sequence: T1 sequence with A41S

Kd [1]: 262 nM | Kd [2]: 213 nM | Kd [3]: 207 nM | Kd [4]: 219 nM | Kd [5]: 33 nM | Kd [6]: 2040 nM | Kd [7]: 1860 nM | Kd [8]: 176 nM | Kd [9]: 588 nM | Kd [10]: 358 nM | Kd [11]: 125 nM
B1: human IL-3 (hIL-3) (ligand)
chain: APMTQTTPLKTSWVNCSNMIDEIITHLKQPPLPLLDFNNLNGEDQDILMENNLRRPNLEAFNRAVKSLQNASAIESILKNLLPCLPLATAAPTRHPIHIKDGDWNEFRRKLTFYLKTLENAQAQQTTLSLAIF
